# Assay results reported in patent US20250019430A1 (published 2025).
# T1: RETN-flag-His (human, UniProt Q9HD89 19-108)
# T1 chain: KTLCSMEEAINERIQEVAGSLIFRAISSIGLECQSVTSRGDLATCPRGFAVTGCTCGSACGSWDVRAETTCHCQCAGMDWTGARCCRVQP
# B1: 5A2 (antibody, V domains shown)
# VH: QVQLVQSGAEGRKPGSSVKVSCKVSGDTFSSYAISWVRQAPGQGLEWMGGIIPIFGAADYAQKFKGRVTISADESTSTAYMELSSLRSEDTAVYYCAKGPDYYGSFDPWGQGTLITVSS
# VL: DIQMTQSPSFLSASVGDRVTITCRASQYIGTYLAWYQQQPGKAPKLLIYGASILQNGVPSRFSGSASGTEFTLTISSLQPEDFATYYCQQADSFPLTFGGGTKVDIKR
# B2: RETN-5A2 (antibody, V domains shown)
# VH: B1 VH
# VL: B1 VL
# B3: 5A2-LS-2E10 (antibody, V domains shown)
# VH: B1 VH
# VL: DIQMTQSPSSLSASVGDRVTITCRTSQTITNYLNWYQQKPGRAPKLLIFDASNLETGVPSRFSGSGSGTDFTLTISSLQPEDFATYFCQQSYNPGYTFGQGTKLEIKR
# B4: 5A2-LS-2H10 (antibody, V domains shown)
# VH: B1 VH
# VL: NFMLTQPASVSGSPGQSITISCTGSSSDVGGYNYVTWYQQHPGKAPQLIIYDVTKRPSGVSNRFSGSKSGNSASLTISGLQAEDEADYYCSSYSSSTFYVFGTGTKVTVLR
# B5: 5A2-LS-2B02 (antibody, V domains shown)
# VH: B1 VH
# VL: DIQMTQSPGTLSLSAGERATLSCRASQSVRGSYLAWYQQKPGQAPRLLIYGTSSRAPGIPDRFSGSGSGTDFTLTISSLEPEDFAVYYCQQRGDWLYTFGQGTKVEIKR
# B6: 5A2-LS-2G03 (antibody, V domains shown)
# VH: B1 VH
# VL: DIQMTQSPSSLSASVGDRVTITCQASQHVSSYLNWYQQKPGKAPKLLIYAASNLQSGVPSRFSGSGSGTDFTLTISSLQPDDFATYYCQQYDSYSSVYTFGPGTKLDIKR
# B7: 5A2-LS-2D07 (antibody, V domains shown)
# VH: B1 VH
# VL: QSALTQPASVSGSPGQSVTISCTGTSSDIGRYNRVSWYQHHPGKAPKLIIYDVSNRPSGVSNRFSGSKSGNTASLTISGLQAGDESDYYCSAYTRSSTWVFGGGTKLTVLR
# B8: 5A2-LS-1F11 (antibody, V domains shown)
# VH: B1 VH
# VL: not shown
# B9: 5A2-LS-2F11 (antibody, V domains shown)
# VH: B1 VH
# VL: DIQMTQSPSSLSASVGDRVTITCRASQSIGTYLNWYQQKPGKAPKLLIYDASSLEDGVPSRFSGSGSGTDFTLTISSLQPEDSATYYCQQSYTMPLYTFGQGTKLEIKR
# Biological target: RETN-C-His (#S0995)
# Experiment: Octet BLI
row,Kd,Binder
1,2.14 nM,B1

# Biological target: T1, RETN-flag-His
# Experiment: Octet BLI
row,Kd,Binder
1,2.1 nM,B2

# Biological target: RETN-His (#S0995)
# Experiment: Octet BLI
row,Kd,Binder
1,0.419 nM,B3
2,0.538 nM,B4
3,0.452 nM,B5
4,0.311 nM,B6
5,1.17 nM,B1
6,0.49 nM,B7
7,0.958 nM,B8
8,0.443 nM,B9
